# In patent US20240238380A1, “COMPOSITION FOR COMBINATION THERAPY COMPRISING GROWTH DIFFERENTIATION FACTOR-15 VARIANT AND GLUCAGON-LIKE PEPTIDE-1 RECEPTOR AGONIST” (YUHAN CORPORATION, priority 2021, published 2024):
# Marks after values point to notes of the source that are not given here.
# Key:
# [1] = target: T1, GFRAL/RET/SRE-luc-overexpressing HEK293 cell line (Homo sapiens, UniProt Q6UXV0); experiment: Functional activity of long-acting GDF15 fusion protein (Bright-Glo luciferase assay); assay type: cell-based; conditions: for EC50 values (in words) / Emax values (in words): compared with the other linkers; for EC50: luciferase RLU, 4 hours reaction; for Emax (%): relative to FM9-6+Fc_hole (Emax 100%)
# T1 construct: expressed in transfected cells; host or cells: HEK293 (human embryonic kidney 293), overexpressing GFRAL, RET and an SRE-luciferase reporter
# T1 sequence (Q6UXV0 19-394, species assumed): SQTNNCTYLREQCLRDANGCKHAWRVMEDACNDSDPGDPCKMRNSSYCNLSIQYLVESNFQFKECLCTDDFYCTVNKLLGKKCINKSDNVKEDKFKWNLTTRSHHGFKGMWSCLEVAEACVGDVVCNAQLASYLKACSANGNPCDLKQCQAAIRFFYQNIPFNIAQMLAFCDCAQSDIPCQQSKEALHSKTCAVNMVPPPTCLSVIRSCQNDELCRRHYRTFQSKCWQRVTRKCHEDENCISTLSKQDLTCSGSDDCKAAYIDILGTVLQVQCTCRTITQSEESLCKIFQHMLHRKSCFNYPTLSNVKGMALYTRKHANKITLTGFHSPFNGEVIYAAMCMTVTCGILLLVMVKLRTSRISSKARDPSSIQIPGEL
# T1 sequence (P07949 29-1114 partner, species assumed): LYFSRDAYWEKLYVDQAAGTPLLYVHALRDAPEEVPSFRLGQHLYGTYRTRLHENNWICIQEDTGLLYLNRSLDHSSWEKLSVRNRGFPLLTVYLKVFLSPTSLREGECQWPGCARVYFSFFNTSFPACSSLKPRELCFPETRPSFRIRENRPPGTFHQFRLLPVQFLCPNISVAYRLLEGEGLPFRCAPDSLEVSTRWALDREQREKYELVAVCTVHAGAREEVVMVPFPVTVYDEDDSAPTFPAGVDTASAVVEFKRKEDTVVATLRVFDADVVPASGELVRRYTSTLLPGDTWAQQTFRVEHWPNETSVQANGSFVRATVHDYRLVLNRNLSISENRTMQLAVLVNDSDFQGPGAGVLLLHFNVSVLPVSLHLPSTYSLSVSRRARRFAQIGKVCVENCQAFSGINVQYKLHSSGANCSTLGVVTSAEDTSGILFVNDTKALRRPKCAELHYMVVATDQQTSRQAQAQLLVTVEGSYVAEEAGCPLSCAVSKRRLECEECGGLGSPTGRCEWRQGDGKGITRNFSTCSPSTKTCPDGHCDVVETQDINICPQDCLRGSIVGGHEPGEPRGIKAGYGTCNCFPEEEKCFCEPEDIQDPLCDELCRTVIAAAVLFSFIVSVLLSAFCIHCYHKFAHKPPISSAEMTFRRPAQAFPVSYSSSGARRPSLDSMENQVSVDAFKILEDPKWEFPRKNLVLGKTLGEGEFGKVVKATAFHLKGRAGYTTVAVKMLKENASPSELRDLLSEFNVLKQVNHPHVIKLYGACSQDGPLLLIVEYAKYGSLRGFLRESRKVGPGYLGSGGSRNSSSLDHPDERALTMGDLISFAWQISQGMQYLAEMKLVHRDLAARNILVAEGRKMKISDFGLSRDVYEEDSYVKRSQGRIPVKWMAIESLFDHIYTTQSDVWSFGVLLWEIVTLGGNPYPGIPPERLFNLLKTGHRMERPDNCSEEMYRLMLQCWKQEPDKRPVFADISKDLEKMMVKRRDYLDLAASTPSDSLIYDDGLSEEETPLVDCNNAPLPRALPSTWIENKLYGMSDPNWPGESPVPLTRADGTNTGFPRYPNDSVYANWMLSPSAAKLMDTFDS
# Procedure: Two variants (FM9+Fc_hole, FM11+Fc_hole) were compared and evaluated for GDF15 activity depending on the linker type and length. The GDF15 activity was measured using a Bright-Glo™ luciferase assay kit (Promega) and a GFRAL/RET/SRE-luc-overexpressing HEK293 cell line (Human embryonic kidney 293).
# Specifically, 1×10^5 GFRAL/RET/SRE-luc-overexpressing HEK293 cells were dispended in DMEM containing 10% FBS in each well of a 96-well-plate, followed by culture at 37° C. and 5% CO2 for 24 hours. After 24 hours, each medium of the 96-well plate was replaced with 50 μl of a serum-free medium, followed by culture at 37° C. and 5% CO2 for 4 hours.
# In addition, the long-acting GDF15 fusion protein produced in Example 1 was prepared by 3-fold serial dilution from a concentration of 2000 nM using a serum-free medium. Thereafter, 50 μl of the long-acting GDF15 fusion protein dilution was added to each well containing 50 μl of the replaced serum-free medium and the GERAL/RET/SRE-luc cell line so that the actual concentration thereof was serially diluted 3-fold from 1000 nM, followed by reaction at 37° C. and 5% CO2 for 4 hours. After 4 hours, each well was treated with 100 μl of a Bright-Glo™ solution prepared by adding a Bright-Glo™ buffer to a Bright-Glo™ substrate, followed by reaction at room temperature for 1 minute.
# Thereafter, the reaction value (relative light units, RLU) was measured using a microplate reader (Perkin Elmer, Wallac Victor X5) capable of measuring luminescence. The results thereof are shown in Table 2 below and in FIGS. 1 and 2. Here, the functional activity of the long-acting GDF15 fusion protein depending on the GDF15 sequence, linker type, and length was compared based on the in-vitro GDF15 activity of FM9-6+Fc_hole (Emax 100%).
# [2] = Pharmacokinetics of long-acting GDF15 fusion protein (dimer) in C57BL/6N mice; assay type: in vivo; conditions: 1 mg/kg subcutaneous; for Cmax: active GDF15 in serum by ELISA
# Procedure: 6-week-old male C57BL/6N mice (Orient Bio, Republic of Korea) were purchased from Hallym Lab. Animal Inc., Republic of Korea. Animals were acclimated for 7 days, and on the day of drug administration, the mice were grouped based on the average body weight of individual mice (n=3 per blood sampling time per group). Then, FM9-4+Fc_hole, FM9-6+Fc_hole, FM11-4+Fc_hole, and FM11-6+Fc_hole were subcutaneously administered at 1 mg/kg to each group, and blood samples were collected at 4, 24, 48, 72, 96, 120, 168, and 240 hours after administration. Determination of active GDF15 in serum was achieved by enzyme-linked immunosorbent assay (ELISA), and pharmacokinetic parameters of each long-acting GDF15 fusion protein (dimer) are shown in Table 3 below.
# [3] = Inhibitory effect on gastric emptying (acetaminophen exposure) in normal rats (Example 8); assay type: in vivo; conditions: rats, 30 mg/kg oral, positive control
# Procedure: Therefore, this example was performed to investigate the inhibitory effect on gastric emptying when the novel long-acting GDF15 fusion protein was administered at the doses equal to the effective dose, higher than the maximum effective dose, or in combination with a GLP-1 receptor agonist to rats. 6-week-old male SD rats (Orient Bio, Republic of Korea) were purchased from Hallym Lab. Animal Inc., Republic of Korea. Animals were acclimated for 7 days. On the day of drug administration, the rats were grouped based on the average body weight of individual rats (n=5 per group) and fasted for at least 6 hours before oral administration of acetaminophen. Then, 0.1, 1, and 10 nmol/kg of FM9-6+Fc_hole, 10 nmol/kg of semaglutide (long-acting GLP-1 derivative, SEQ ID NO: 114), and combination of FM9-6+Fc_hole and semaglutide (1+10 nmol/kg) were subcutaneously administered. The semaglutide was Ozempic® (semaglutide) from Novo NorDisk. As a negative control drug, D-PBS (normal vehicle) was subcutaneously administered, and as a positive control drug, 30 mg/kg of loperamide was orally administered 45 minutes before acetaminophen administration. On 3, 24 and 72 hours after a single dose of the test articles, acetaminophen was orally administered at 100 mg/kg to rats, and blood samples were collected before and at 30, 60, 90, 120 and 150 minutes after acetaminophen administration. The plasma concentration of acetaminophen was analyzed, and the pharmacokinetic profiles and the systemic exposures of acetaminophen were compared to evaluate the inhibitory effect on gastric emptying among the groups.
Molecule,EC50 [1] [nM],Emax (%) [1] [%],AUClast [2] [µg·h/mL],CL/F [2] [mL/h/kg],"T1/2,app [2] [h]",Tmax [2] [h],Cmax [2] [ng/mL],also measured
"FM9-4 + Fc_hole: long-acting GDF15 fusion protein (dimer): GDF15 ΔN2, S64R, IgG1 Fc_knob/Fc_hole, linker GS(EEEA)6; SEQ ID NOs: 101 and 47",,,750.49702,1.30,36.84,24,8421.37,EC50 values (in words) [1]: relatively low EC50 values; Emax values (in words) [1]: high Emax values
"FM11-6 + Fc_hole: long-acting GDF15 fusion protein (dimer): GDF15 ΔN3, G4N, D5S, H6T, S64R, IgG1 Fc_knob/Fc_hole, linker GS(EAAAK)5; SEQ ID NOs: 109 and 47",,,116.43394,8.43,25.84,24,1547.77,
"FM11-4 + Fc_hole: long-acting GDF15 fusion protein (dimer): GDF15 ΔN3, G4N, D5S, H6T, S64R, IgG1 Fc_knob/Fc_hole, linker GS(EEEA)6; SEQ ID NOs: 107 and 47",,,690.21308,1.41,40.61,24,7200.02,EC50 values (in words) [1]: relatively low EC50 values; Emax values (in words) [1]: high Emax values
"FM11-2 + Fc_hole: long-acting GDF15 fusion protein (dimer): GDF15 ΔN3, G4N, D5S, H6T, S64R, IgG1 Fc_knob/Fc_hole, linker GS(G4S)5; SEQ ID NOs: 105 and 47",7.7,79.4,,,,,,
"CN(C)C(=O)C(CCN1CCC(O)(c2ccc(Cl)cc2)CC1)(c1ccccc1)c1ccccc1 [Loperamide, loperamide, reference compound]",,,,,,,,"AUClast of acetaminophen (μg · min/mL), 3 hr ([3]; 3 hr): 1565.13 µg·min/mL; AUClast of acetaminophen (μg · min/mL), 24 hr ([3]; 24 hr): 761.04** μg · min/mL; AUClast of acetaminophen (μg · min/mL), 72 hr ([3]; 72 hr): 996.36*** μg · min/mL"

# Continued, in another order:
EC50 [1] [nM],Emax (%) [1] [%],Molecule,AUClast [2] [µg·h/mL],CL/F [2] [mL/h/kg],"T1/2,app [2] [h]",Tmax [2] [h],Cmax [2] [ng/mL],also measured
7.8,81.0,"FM11-3 + Fc_hole: long-acting GDF15 fusion protein (dimer): GDF15 ΔN3, G4N, D5S, H6T, S64R, IgG1 Fc_knob/Fc_hole, linker GS(G4S)7; SEQ ID NOs: 106 and 47",,,,,,
9.3,95.6,"FM9-3 + Fc_hole: long-acting GDF15 fusion protein (dimer): GDF15 ΔN2, S64R, IgG1 Fc_knob/Fc_hole, linker GS(G4S)7; SEQ ID NOs: 100 and 47",,,,,,
9.5,110.8,"FM9-2 + Fc_hole: long-acting GDF15 fusion protein (dimer): GDF15 ΔN2, S64R, IgG1 Fc_knob/Fc_hole, linker GS(G4S)5; SEQ ID NOs: 99 and 47",,,,,,
